# Assay results reported in publication PMC9949256, “Integrated analyses reveal a hinge glycan regulates coronavirus spike tilting and virus infectivity” (Research Square, 2023).
# B1: human coronavirus NL63 (HCoV-NL63) spike glycoprotein (S) (natural protein)
# chain: CNSNANLSMLQLGVPDNSSTIVTGLLPTHWFCANQSTSVYSANGFFYIDVGNHRSAFALHTGYYDANQYYIYVTNEIGLNASVTLKICKFSRNTTFDFLSNASSSFDCIVNLLFTEQLGAPLGITISGETVRLHLYNVTRTFYVPAAYKLTKLSVKCYFNYSCVFSVVNATVTVNVTTHNGRVVNYTVCDDCNGYTDNIFSVQQDGRIPNGFPFNNWFLLTNGSTLVDGVSRLYQPLRLTCLWPVPGLKSSTGFVYFNATGSDVNCNGYQHNSVVDVMRYNLNFSANSLDNLKSGVIVFKTLQYDVLFYCSNSSSGVLDTTIPFGPSSQPYYCFINSTINTTHVSTFVGILPPTVREIVVARTGQFYINGFKYFDLGFIEAVNFNVTTASATDFWTVAFATFVDVLVNVSATNIQNLLYCDSPFEKLQCEHLQFGLQDGFYSANFLDDNVLPETYVALPIYYQHTDINFTATASFGGSCYVCKPHQVNISLNGNTSVCVRTSHFSIRYIYNRVKSGSPGDSSWHIYLKSGTCPFSFSKLNNFQKFKTICFSTVEVPGSCNFPLEATWHYTSYTIVGALYVTWSEGNSITGVPYPVSGIREFSNLVLNNCTKYNIYDYVGTGIIRSSNQSLAGGITYVSNSGNLLGFKNVSTGNIFIVTPCNQPDQVAVYQQSIIGAMTAVNESRYGLQNLLQLPNFYYVSNGGNNCTTAVMTYSNFGICADGSLIPVRPRNSSDNGISAIITANLSIPSNWTTSVQVEYLQITSTPIVVDCATYVCNGNPRCKNLLKQYTSACKTIEDALRLSAHLETNDVSSMLTFDSNAFSLANVTSFGDYNLSSVLPQRNIRSSRIAGRSALEDLLFSKVVTSGLGTVDVDYKSCTKGLSIADLACAQYYNGIMVLPGVADAERMAMYTGSLIGGMVLGGLTSAAAIPFSLALQARLNYVALQTDVLQENQKILAASFNKAINNIVASFSSVNDAITQTAEAIHTVTIALNKIQDVVNQQGSALNHLTSQLRHNFQAISNSIQAIYDRLDSIQADQQVDRLITGRLAALNAFVSQVLNKYTEVRGSRRLAQQKINECVKSQSNRYGFCGNGTHIFSIVNSAPDGLLFLHTVLLPTDYKNVKAWSGICVDGIYGYVLRQPNLVLYSDNGVFRVTSRVMFQPRLPVLSDFVQIYNCNVTFVNISRVELHTVIPDYVDVNKTLQEFAQNLPKYVKPNFDLTPFNLTYLNLSSELKQLEAKTASLFQTTVELQGLIDQINSTYVDLKLLNRFENYIKWPWWVWLIISVVFVVLLSLLVFCCLSTGCCGCCNCLTSSMRGCCDCGSTKLPYYEFEKVHVQ
# modifications: N-linked glycans at 39 canonical N-glycosylation sites (36 on the crown; N1242, N1247 and N1277 on the stalk), mostly high-mannose
# notes: Spike glycoprotein S of human coronavirus NL63, full-length S in the viral envelope; ectodomain residues 1 to 1297 (crown model 1-1224, stalk 1216-1297); Trimeric spike imaged in situ on intact virions; The atomic model covers only the crown (to residue 1224); The stalk model is predicted (I-TASSER, AlphaFold, CCBuilder) and fitted by MDFF; also called S trimer
# Target: the molecule itself
# Test: cryo-EM structure; cryoET and subtomogram averaging of spikes in situ on vitrified, chemically unfixed, purified HCoV-NL63 virions; C3 symmetry imposed; crown 6.9 Å, stalk with membrane 11.5 Å; focused classification of RBD and domain 0
protein,measurement,value
B1,stoichiometry N,3
